Molecular target: T1, Fur (Escherichia coli O157:H7 (EDL933?)) (UniProt P0A9B1)
T1 sequence: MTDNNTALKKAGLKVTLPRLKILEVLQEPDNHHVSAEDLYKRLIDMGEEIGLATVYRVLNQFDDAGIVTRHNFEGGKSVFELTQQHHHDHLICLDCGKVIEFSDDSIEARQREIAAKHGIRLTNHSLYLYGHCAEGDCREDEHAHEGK
Test: EMSA
Details: BirA EMSA: 1 mM Tris-HCl pH 7.5, 0.1 mM EDTA, 0.2 mM DTT, 5 mM MgCl2, 10 mM KCl, 20 uM biotin, 1 mM ATP (DIG Gel Shift Kit); Fur EMSA: Invitrogen E33075 kit …

| Sequence | binding |
| --- | --- |
| GTTGGCGGCATCATTGTATCCGATGAAGATAATTGCTCTAGTTTATCAAATTGCTTATCGAGCAAAGAGGCGAGAGTATGTTGCATTATTGCTTTTGACATGTTTGCGCGATGATTATTATCTTTATGAAAAATTTGGCAAAGATACCACTTCTTATTAGACAGGAAAATACCCATTTGTTTATATTCGTTACTAACGGCCAGGATATTGCAGAGTCTGATAAATGTATCTGTTGGAACCTGACGAAAATCACCACTAAGCTCAATATATAGAACCCAGTAGTTTCCAAAATCG (double strand) [LEE Box4 fragment] | no binding |
| AACAGAAGACTGGTTGCTGGAGAGTCCTTCTCGGGTATCGATTGTCGAAGATAAACATATTTATTATTTTCATTTATTGAAAGACTTTTTTACATCATTACCAGATGCTTGCTTTATTGATAGTGAGCAGAGAGAGAATGCATTATTAATGATTGGTAAAGTTATCGACTATAAGGAGGAAATTATTTGATATTAATTACTCAATAATTTTTTTGTTTTCCTGAGAAAAATTATCAAGAGGTATATAGATGGATACATCAAATGCAACATCCGTTGTTAATGTGAGTGCGAGTTCTTC (double strand) [LEE Box1 fragment] | no binding |
| GACATTAAACTTGATCCTGGCGAGGCCAACAATATACAGCTTATTAATGATGCAAACACACCGCATAATAAAATTATAATAGAAAATGAATATATTAGAATAACTTTAGACCCATTAGAGCAAATAAGTATTTTATTGAATTCATTTAAAGATAATTATCTTAGCATTATTCAGGAATGATGATATGTCTCAATTAATGACCATTGGCTCACAGCCAATATTTTTAATTATTGTATTTTTTCTGTTATCATTACTGCCAA (double strand) [LEE Box5 fragment] | no binding |

From paper PMC4382993
